Patent US20050031631A1
Where a chain is given by its changes, count along the chain named.

How the values were obtained:
[1] = target: human IgE of ten monosensitive Pj allergic patients (single sera / the patients themselves) (human); experiment: cell-based or functional assay
[2] = target: human IgE from a pool of sera (n=10) of Pj monosensitive allergic patients (human); experiment: ELISA inhibition: pool of sera (n=10, 1:5) preincubated with the protein (0.25-20 ug/ml), then on wells coated with rParj1; bound IgE detected

B1: PjB mutant of Par j 1.0102 (Cys50->Ser and Cys52->Ser) (protein, not shown: small tags and cut ends)
chain: QETCGTMVRALMPCLPFVQGKEKEPSKGCCSGAKRLDGETKTGPQRVHASESIQTAMKTYSDIDGKLVSEVPKHCGIVDSKLPPIDVNMDCKTVGVVPRQPQLPVSLRHGPVTGPSDPAHKARLERPQIRVPPPAPEKA
Q: Which results are given for B1?
A: skin prick test, patients with Type I immediate hypersensitivity (out of 10 patients) [1]: 9; % inhibition [2]: 85%

B2: PjA mutant of Par j 1.0102 (Cys29->Ser and Cys30->Ser) (protein, not shown: small tags and cut ends)
chain: B1 chain with C29S, C30S, S50C, S52C
Q: For B2, which skin prick test, patients with a positive reaction (out of 10 patients) [1] is on record?
A: 3

Q: And the % inhibition [2]?
A: 16%

B3: recombinant Par j 1.0102, major allergen of Parietaria judaica (wild type) (protein, not shown: small tags and cut ends)
chain: B1 chain with S50C, S52C
Q: Which % inhibition [2] does the source give for B3 here?
A: 95%

B4: PjC mutant of Par j 1.0102 (Cys4->Ser, Cys29->Ser and Cys30->Ser) (protein, not shown: small tags and cut ends)
chain: B1 chain with C4S, C29S, C30S, S50C, S52C
Q: B4 was tested. Which % inhibition [2] did it give?
A: 14%

B5: PjD mutant of Par j 1.0102 (Cys29->Ser, Cys30->Ser, Cys50->Ser and Cys52->Ser) (protein, not shown: small tags and cut ends)
chain: B1 chain with C29S, C30S
Q: For B5, which % inhibition [2] is on record?
A: 15%
